Assay results: US20040071656A1, “Modulation of heat-shock-protein-based immunotherapies” (priority 2001, published 2004)

Assays:
human CD40 = biological target: T1, human CD40 (Homo sapiens, UniProt P25942); experiment: Uptake of peptide C-FITC in HEK293T-CD40 cells, confocal microscopy; type: cell-based; details: 0.5 μM protein, 5 μM peptide C-FITC, ADP, 30 min 0° C. then 15 min 37° C.
T1 construct: CD40 full-length cDNA was cloned by PCR; expressed in transfected cells
Description: For experiments to study uptake of Hsp70/peptide C-FITC complex, HEK293T-CD40 and HEK293T-MCAT cells were seeded on collagen-coated cover slips 24 h prior to the experiment. For complex formation Hsp70, its N-terminal domain (N70) or its C-terminal domain (C70) were preincubated with a 10-fold molar excess of peptide C-FITC for 30 min at 37° C., as described above for the biotinylated proteins. HEK293T-CD40 and HEK293T-MCAT were incubated with 0.5 μM of Hsp70, N70 or C70, preincubated with 2 mM ADP and 5 μM peptide C-FITC, or 5 μM peptide C-FITC alone for 30 min on ice. Thereafter the cells were washed three times with medium, incubated for 15 min at 37° C., and fixed, embedded in Fluoromount-G and analyzed by confocal microscopy (LSM 510, Zeiss).
Next, the binding of Hsp70-peptide complex to CD40 was studied, which results in the uptake of peptide. To this end, HEK293T-CD40 cells and HE293T-MCAT cells (not expressing CD40) were incubated with a fluorescent (FITC) derivative of peptide C for 30 min at 0° C. in the presence of ADP, with or without Hsp70 or its two domains. After removal of excess material, the cells were incubated at 37° C. for 15 min, fixed and then analyzed by fluorescence microscopy. […] (FIG. 6B, panel 1). […] Neither did HEK293T-MCAT control cells give rise to a signal under any of the conditions tested (not shown). We conclude that the specific interaction of CD40 with Hsp70-peptide complex mediates the uptake of peptide.
Details for FIG. 6. Binding of Hsp70 complex to CD40-expressing HEK293T cells induces signaling via p38 and causes peptide uptake. A. HEK293T-cells, stably transfected with cDNA encoding human CD40 or the unrelated membrane protein murine cationic amino acid transporter (MCAT) were incubated for 20 min at 37° C. with CD40L or with Hsp70, C70, N70, bacterial DnaK either in the presence of ADP or AMPPNP, or buffer alone. Thereafter cells were washed, solubilized in SDS-sample buffer, and analyzed by immunoblotting with antibodies directed against phosphorylated (active) p38. Blots were also developed with an antibody against tubulin in order to control for equal loading. B. Cells were incubated at 0° C. for 30 min with recombinant human Hsp70, N70, or C70, all in the presence FITC-labeled peptide, or with the FITC-labeled peptide alone. Thereafter cells were washed, incubated for 15 min at 37° C., and processed for fluorescence microscopy. Upper left panel: Hsp70, upper right panel: FITC-labeled peptide alone, lower left panel: C70, lower right panel: N70. Only cells stably transfected with CD40 are shown. Cell boundaries are emphasized with broken lines.

[1] = biological target: T2, exoplasmic domain of human CD40 (GST-CD40) (Homo sapiens, UniProt P25942); experiment: GST-CD40 pull-down of endogenous heat shock proteins from Hela cell lysate; type: binding; details: 80 or 400 pmol GST-CD40, immunoblot
T2 construct: The cDNA for the exoplasmic domain of CD40 (amino acids 20-212); made in house; host or cells: E. coli, pGEX-2T
Description: Binding assays with GST-CD40. For binding of endogenous Hsp70 and Hsc70 from Hela cell lysate, Hela cells were lysed as described above and centrifuged at 100,000 g at 4° C. for 1 h. 20 μl bed volume of Glutathione Sepharose 4 Fast Flow (Amersham Pharmacia) per sample were preincubated with 80 pmol or 400 pmol of GST or GST-CD40 fusion protein in 50 μl binding buffer. Unbound protein was removed by washing three times with PBS. The beads were treated with 1% BSA/PBS to avoid non-specific binding, and than incubated with 150 μl of Hela cell lysate in the presence of 2 mM DTT for 20 min at 16° C. […] 10 μl of the eluates was subjected to SDS-PAGE and analyzed by immunoblotting using an anti-Hsc/Hsp70 antibody and an anti-Hsp90: antibody (SPA822 and SPA835, Stressgen). […]
Details for FIG. 3. […] Thereafter samples were affinity purified on glutathione-Sepharose as outlined in Experimental Procedures, subjected to SDS-PAGE and analyzed by immunoblotting with antibodies directed against Hsc70 and Hsp70 (upper lanes), and against Hsp90 (lower lanes). […] After affinity purification samples were analyzed by immunoblotting as described in A, using antibodies directed against the His6-tag. […] Protein bound to Hsp70 was analyzed by affinity purification on Ni-NTA-agarose and immunoblotting with antibodies directed against CD40.

T1 sequence (P25942 21-277): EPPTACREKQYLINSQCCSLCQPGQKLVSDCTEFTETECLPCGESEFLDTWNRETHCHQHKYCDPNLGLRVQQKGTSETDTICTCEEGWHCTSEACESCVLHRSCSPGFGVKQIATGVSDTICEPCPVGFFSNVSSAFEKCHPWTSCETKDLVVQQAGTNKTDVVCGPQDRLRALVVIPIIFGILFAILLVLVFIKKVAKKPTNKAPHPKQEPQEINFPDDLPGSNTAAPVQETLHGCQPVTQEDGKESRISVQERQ
T2 sequence (P25942 20-212): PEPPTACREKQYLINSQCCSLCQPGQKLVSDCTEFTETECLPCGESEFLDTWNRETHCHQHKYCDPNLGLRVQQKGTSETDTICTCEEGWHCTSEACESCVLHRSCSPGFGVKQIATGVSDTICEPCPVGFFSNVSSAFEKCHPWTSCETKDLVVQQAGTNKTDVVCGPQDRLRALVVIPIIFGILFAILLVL

Substance	uptake of fluorescent (FITC) peptide C into HEK293T-CD40 cells (human CD40)	binding to GST-CD40 from Hela-cell lysates [1]
N70: Recombinant N-terminal ATPase domain of human Hsp70, residues 5-381 (SEQ ID NO: 1)	did not result in a peptide signal above background	
Hsp70: Recombinant human heat shock protein 70, expressed and purified as His-tagged protein	fluorescent peptide was observed in punctuate intracellular structures only in cells expressing CD40	bound to GST-CD40 in a concentration dependent manner
